In data set [1] the test system is W-Pro21717. The data set can be described thus: Activity and stability of W-Pro21717 in the presence of metal ions and surfactants. The data set is classed as biochemical, Pseudoalteromonas arctica PAMC 21717. Conditions: 1 mM, on ice for 1 hour. The method, then: In order to analyze the influence of metal ions and detergents, W-[…] was allowed to react with a standard buffer containing 1 mM BaCl2, CuSO4, MgSO4, CaCl2, ZnSO4, FePO4, KCl, NaCl, […], sodium linear alkylbenzene sulfonate (LAS) or SDS on ice for 1 hour. In addition, the compatibility of W-[…] with a commercial detergent (LG Household & Health Care, Korea; containing subtilisin Carlsberg) was analyzed using skim milk at temperatures of 10° C. or and 30° C.

The test system of data set [2] is W-Pro21717. The data set can be described thus: Reactions of W-Pro21717 with various protease inhibitors. The data set is classed as biochemical, Pseudoalteromonas arctica PAMC 21717. Conditions: for Residual activity (%): residual activity of W-Pro21717, inhibitor 1 mM. The method, then: The reaction solution was centrifuged, and then filtered through a filter having a pore size of 0.45 μm, and the filtrate was mixed and reacted with Folin & Ciocalteu's phenol solution and 500 mM sodium carbonate solution at 37° C. for 30 minutes. Next, the enzymatic activity of the reaction product was measured at 660 nm based on an L-tyrosine standard curve, and an amino acid production of 1 nmole/min/mg at 25° C. was defined as the activity of 1 unit of protease.
The kind of W-Pro21717 was analyzed by reactions with various protease inhibitors.

Data set [3] can be described thus: Activity of W-Pro21717 as a function of temperature and pH. The class given is biochemical. Particulars: range 0 to 60° C. tested. The procedure: A temperature optimal for the activity of W-Pro21717 was analyzed in the temperature range of 0 to 60° C., and the optimum pH was analyzed by 1-hour reactions in 50 mM sodium acetate (pH 2.0-6.0), 50 mM potassium phosphate (pH 7.0-10.0) and 50 mM sodium tetraborate (pH 10.0). As a control, 3 μg of the commercial protease Carlsberg subtilisin was used.

Data set [4] relates to azocasein. Briefly: Stability of R-Pro21717 against temperature and pH. The data set is classed as physicochemical. Conditions: 1 hour at varying temperatures, then azocasein 30° C. 30 minutes. The procedure:
(§1) In order to determine a temperature optimal for the activity of the protease, R-Pro21717 was allowed to react at varying temperatures of 0˜70° C., and then analyzed. The stability of R-Pro21717 against temperature was analyzed by allowing R-Pro21717 at varying temperatures of 0˜70° C. for 1 hour, and then allowing R-Pro21717 to react a 0.65% azocasein-containing standard buffer at 30° C. for 30 minutes. As a control enzyme, Carlsberg subtilisin was used.
(§2) In order to determine a pH optimal for the activity of the protease, R-Pro21717-containing buffers having varying pHs were allowed to react at 30° C., and then analyzed. The stability of R-Pro21717 against pH was analyzed by allowing R-Pro21717-containing buffers having varying pHs to react on ice for 1 hour, and then reacting R-Pro21717 in 0.65% azocasein-containing standard buffer at 30° C. for 30 minutes. Carlsberg subtilisin was used as a control enzyme and analyzed at a reaction temperature of 40° C.

Data set [5] is described as follows: Substrate specificity of W-Pro21717 with synthetic peptides (p-nitroanilides, 410 nm). The class given is biochemical. Particulars: 25° C., 10 minutes. The method, then:
(§3) The substrate specificity of W-Pro21717 was analyzed using 5 mM of each of the following 7 different synthetic peptides: N-succinyl-Ala-Ala-Val-p-nitroanilide (AAV), N-succinyl-Ala-Ala-Pro-Leu-p-nitroanilide (AAPL), N-succinyl-Ala-Ala-Ala-p-nitroanilide (AAA), N-succinyl-Gly-Gly-Phe-p-nitroanilide (GGF), N-succinyl-Thr-Leu-Val-p-nitroanilide (TLV), N-succinyl-Ala-Ala-Pro-Phe-p-nitroanilide (AAPF), and N-succinyl-Ala-Ala-Val-Ala-p-nitroanilide (AAVA). W-Pro21717 was allowed to react with a standard buffer containing 0.83 mM substrate at 25° C. for 10 minutes, and then the relative activity thereof was measured at 410 nm.

Data set [6] deals with complex substrates including collagen and keratin. The data set can be described thus: Substrate specificity of R-Pro21717, macro molecule substrates. The data set is classed as biochemical.
Data set [7] is described as follows: Substrate specificity of R-Pro21717, synthetic peptide (oligo molecule) substrates. The class given is biochemical. The procedure:
as §3
In this Example, the activity of the R-Pro21717 protease in the presence of synthetic peptide substrates was analyzed.

The subject of data set [8] is azocasein. Briefly: Activity of R-Pro21717 as a function of temperature and pH. The data set is classed as biochemical. The procedure: as §1, §2
Data set [9] can be described thus: Stability of W-Pro21717 as a function of temperature and pH. Conditions: after a reaction at 40° C. for 1 hour. The data set is classed as physicochemical.

As for `[Ba+2].[Cl-].[Cl-]` [Ba^2+, BaCl2], the “influence on the activity of W-Pro21717” value in the data set on W-Pro21717 [1] is recorded as “did not influence”.
On the same count and under the same terms, next, `[Ca+2].[Cl-].[Cl-]` [Ca^2+, CaCl2]: “did not influence”.
In the case of `O=S(=O)([O-])[O-].[Cu+2]` [CuSO4], the “increase of the activity of W-Pro21717” value in the data set on W-Pro21717 [1] is reported as “about 60%”.
In the case of `O=C(O)CN(CCN(CC(=O)O)CC(=O)O)CC(=O)O` [EDTA], in the data set on W-Pro21717 [2], the “effect of inhibitor on the activity of W-Pro21717” value (“effect of inhibitor” below) is on record as “slightly inhibited” and the “Residual activity (%)” value came out at 75 ± 9%.
For `O=P([O-])([O-])[O-].[Fe+3]` [Fe^2+, FePO4], the “influence on the activity of W-Pro21717” value with W-Pro21717 [1] was “did not influence”.
In the case of `[Cl][Hg][Cl]` [HgCl2], in the data set on W-Pro21717 [2], the “effect of inhibitor” value is reported as “inhibited” and the “Residual activity (%)” value was determined as 23 ± 8%.
For the molecule `NC(=O)CI` [Iodoacetamide], in the data set on W-Pro21717 [2], the “Residual activity (%)” value is 94 ± 3%.
Turning to `[Cl-].[K+]` [K^+, KCl], the “influence on the activity of W-Pro21717” value in the data set on W-Pro21717 [1] was “did not influence”.
In the case of `CC(=O)N[C@@H](CC(C)C)C(=O)N[C@@H](CC(C)C)C(=O)N[C@H](C=O)CCCNC(=N)N` [Leupeptin], in the data set with W-Pro21717 [2], the “Residual activity (%)” value is 98 ± 2%.
On to `O=S(=O)([O-])[O-].[Mg+2]` [Me, MgSO4], for which the “influence on the activity of W-Pro21717” value with W-Pro21717 [1] is on record as “did not influence”.
On to `CCN1C(=O)C=CC1=O` [N-Ethylmaleimide], for which, in the data set with W-Pro21717 [2], the “Residual activity (%)” value is 107 ± 8%.
As to `Cc1ccc(S(=O)(=O)N[C@@H](CCCCN)C(=O)CCl)cc1` [N^a-p-tosyp-L-lysine chloromethyl ketone], the “Residual activity (%)” value with W-Pro21717 [2] amounted to 137 ± 13%.
For the molecule `O=S(=O)([O-])[O-].[Na+].[Na+]` [Na2SO4], the “stability of W-Pro21717 in the presence of standard detergent components” value with W-Pro21717 [1] is given as “sufficient stability”.
For `[Cl-].[Na+]` [Na^2+, NaCl], the “influence on the activity of W-Pro21717” value in the data set with W-Pro21717 [1] was “did not influence”.
In the case of `O=S(=O)(F)Cc1ccccc1` [PMSF], in the data set on W-Pro21717 [2], the “effect of inhibitor” value was “inhibited” and the “Residual activity (%)” value came to 40 ± 8%.
In the case of `O=S(=O)([O-])[O-].[Zn+2]` [Zn^2+, ZnSO4], the “influence on the activity of W-Pro21717” value with W-Pro21717 [1] was “did not influence”.
Consider APMA, for which the “Residual activity (%)” value in the data set on W-Pro21717 [2] is given as 131 ± 2%.
Turning to “sodium linear alkylbenzene sulfonate [LAS]”, in the data set on W-Pro21717 [1], the “stability of W-Pro21717 in the presence of standard detergent components” value is reported as “sufficient stability”.

B1: Subtilisin Carlsberg: commercial protease used as control enzyme (protein, UniProt P00780 106-379, looked up)
Subtilisin Carlsberg: AQTVPYGIPLIKADKVQAQGFKGANVKVAVLDTGIQASHPDLNVVGGASFVAGEAYNTDGNGHGTHVAGTVAALDNTTGVLGVAPSVSLYAVKVLNSSGSGSYSGIVSGIEWATTNGMDVINMSLGGASGSTAMKQAVDNAYAKGVVVVAAAGNSGSSGNTNTIGYPAKYDSVIAVGAVDSNSNRASFSSVGAELEVMAPGAGVYSTYPTNTYATLNGTSMASPHVAGAAALILSKHPNLSASQVRNRLSSTATYLGSSFYYGKGLINVEAAAQ
For B1, the “temperature optimal for the activity” value (in data set [3]; with azocasein [8] (0˜70° C. tested)) was 60 °C throughout. In the data set on azocasein [4], the “temperature at which stability / enzymatic activity decreases” value was not below 50 °C. Moreover, the “Relative activity (%)” value in [5] (substrate AAA) was 1.5 ± 0.5%; in data set [5] (substrate AAPF), 100%; in data set [5] (substrate AAPL), 66.5 ± 0.1%; in data set [5] (substrate AAPL, listed as subtilisin Carlsberg) it was 68.3%; in data set [5] (substrate AAV), 2.6 ± 1.3%; in data set [5] (substrate AAVA), 11.7 ± 2.3%. Further, the “Relative activity (%)” value in data set [5] (substrate GGF) is listed as 0%; in [5] (substrate TLV) it was 4.0 ± 3.7%; in data set [6] (substrate Azocasein) it was 100%; in [6] (substrate Collagen), 6.7 ± 1.2%; in data set [6] (substrate Keratin), 30.2 ± 5.6%; in data set [6] (substrate Skim milk), 67.7 ± 5.7%. The “Relative activity (%)” value was 10.2 ± 1.9% in [7] (substrate AAA); 100% in data set [7] (substrate AAPF); 57.1 ± 10.1% in data set [7] (substrate AAPL); 7.9 ± 3.9% in [7] (substrate AAV); 12.9 ± 0.6% in data set [7] (substrate AAVA); 16.2 ± 2.1% in [7] (substrate GGF). Moreover, the “Relative activity (%)” value in data set [7] (substrate TLV) was 11.9 ± 1.1%. For the same molecule, in the data set on azocasein [8] (printed 'at or'), the “proteolytic activity at low temperature compared to 60° C.” value is reported as “did not show proteolytic activity”. Further, the “pH optimum and pH stability compared with R-Pro21717” value with azocasein [8] (reaction temperature 40° C.) is given as “the same results as those of R-Pro21717”. Further, the decrease in activity in [9] was determined as 80%.

The values above are taken from patent US9574185B2, “Cold-adapted protease derived from Pseudoalteromonas arctica PAMC 21717 and uses thereof” (KOREA INSTITUTE OF OCEAN SCIENCE & TECHNOLOGY, priority 2014, dated 2017).
